Data from patent US20230103407A1.

Target: mannose receptor (UniProt Q61830)
Assay: cell-based or functional assay

mannose receptor, sequence (Q61830 20-1456 limits assumed): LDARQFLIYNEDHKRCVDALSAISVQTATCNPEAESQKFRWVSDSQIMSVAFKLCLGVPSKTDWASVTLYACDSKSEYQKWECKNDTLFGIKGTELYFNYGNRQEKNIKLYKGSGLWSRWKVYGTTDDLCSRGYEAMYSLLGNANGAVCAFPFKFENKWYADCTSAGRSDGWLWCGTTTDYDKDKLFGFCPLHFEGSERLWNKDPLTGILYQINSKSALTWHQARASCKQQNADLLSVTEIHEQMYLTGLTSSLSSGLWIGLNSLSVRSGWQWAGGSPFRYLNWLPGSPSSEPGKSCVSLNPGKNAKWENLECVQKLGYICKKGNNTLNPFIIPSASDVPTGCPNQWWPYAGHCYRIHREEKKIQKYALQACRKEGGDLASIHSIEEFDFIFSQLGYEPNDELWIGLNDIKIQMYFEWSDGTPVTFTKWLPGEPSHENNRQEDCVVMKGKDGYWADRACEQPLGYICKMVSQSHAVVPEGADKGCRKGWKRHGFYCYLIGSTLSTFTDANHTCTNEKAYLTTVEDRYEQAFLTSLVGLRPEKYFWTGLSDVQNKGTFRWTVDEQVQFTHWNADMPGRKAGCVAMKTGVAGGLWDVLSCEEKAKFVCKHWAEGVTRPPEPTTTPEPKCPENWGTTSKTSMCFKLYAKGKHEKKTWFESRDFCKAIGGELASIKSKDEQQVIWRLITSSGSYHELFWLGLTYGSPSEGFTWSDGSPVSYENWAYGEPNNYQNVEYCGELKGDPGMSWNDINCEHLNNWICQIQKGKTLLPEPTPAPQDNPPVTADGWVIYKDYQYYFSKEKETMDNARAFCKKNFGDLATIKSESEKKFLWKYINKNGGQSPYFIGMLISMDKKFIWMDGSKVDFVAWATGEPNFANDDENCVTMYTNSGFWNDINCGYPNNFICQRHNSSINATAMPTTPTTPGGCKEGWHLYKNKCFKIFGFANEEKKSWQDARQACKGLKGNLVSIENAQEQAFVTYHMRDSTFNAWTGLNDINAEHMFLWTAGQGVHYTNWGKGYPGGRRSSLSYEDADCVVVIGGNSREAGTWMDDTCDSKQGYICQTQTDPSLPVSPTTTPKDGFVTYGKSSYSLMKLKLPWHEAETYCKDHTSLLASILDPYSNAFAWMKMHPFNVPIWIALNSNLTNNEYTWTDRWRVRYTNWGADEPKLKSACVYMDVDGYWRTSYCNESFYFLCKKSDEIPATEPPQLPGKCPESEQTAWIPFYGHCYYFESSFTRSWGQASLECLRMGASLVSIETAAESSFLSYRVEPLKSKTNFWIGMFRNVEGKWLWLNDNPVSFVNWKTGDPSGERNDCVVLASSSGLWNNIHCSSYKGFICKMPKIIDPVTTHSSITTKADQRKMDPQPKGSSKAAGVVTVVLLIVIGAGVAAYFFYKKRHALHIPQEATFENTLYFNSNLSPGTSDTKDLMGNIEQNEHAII

In the case of SapC-DOPS-GCase nanovesicles, the GCase uptake (net GCase activity) blocked by mannan in J774E macrophages or Gba1-/- neurons is reported as 20%.
